Among the data in patent US20160185837A1 (Medimmune Limited, priority 2013, published 2016) are EC50 values, retold here.

What is called EC50 is the concentration that produces a half-maximal response.

The target in assay [1] is T1, human GLP-1 receptor (hGLP-1r) (Homo sapiens, UniProt P43220).
T1 construct: expressed in transfected cells
The assay can be described thus: BSA-cAMP assay, cells expressing human GLP-1 receptor. Format: cell-based. Conditions: BSA-cAMP assay; batch 1 unless a batch is given; read-out: cAMP activity hGLP1r (EC50). The method, then: (§1) One basic cAMP assays was performed, differing in the medium used for the assay, the “BSA-cAMP assay”:
(§2) BSA-based assay medium: 0.1% bovine serum albumin (BSA) in
(§3) In certain aspects, the assay can also be carried out in medium supplemented with serum albumin that corresponds to the receptor being tested, e.g., human serum albumin for testing cAMP activity at hGIPr or hGLP-1r, rat serum albumin for testing cAMP activity at rGIPr or rGLP-1r, and so on. […] All sample dilutions were made in duplicate.
(§4) A frozen cryo-vial of cells expressing the receptor of interest was thawed rapidly in a water-bath, transferred to pre-warmed assay media and spun at 240×g for 5 minutes. Cells were re-suspended in assay buffer at an optimized concentration (e.g., hGLP-1r and hGIPr cells at 0.5×10^5 cells/ml).
(§5) To this, 5 μL cell suspension was added and the plates incubated at room temperature for 30 minutes.
(§6) cAMP levels were measured using a commercially available cAMP dynamic 2 HTRF kit (Cisbio, Cat #62AM4PEJ), following the two step protocol as per manufacturer's recommendations. In brief; anti-cAMP cryptate (donor fluorophore) and cAMP-d2 (acceptor fluorophore) were made up separately by diluting each 1/20 in conjugate & lysis buffer provided in the kit. 5 μL anti-cAMP cryptate was added to all wells of the assay plate, and 5 μL cAMP-d2 added to all wells except non-specific binding (NSB) wells, to which conjugate and lysis buffer was added. […] Data was transformed to % Delta F as described in manufacturer's guidelines and then transformed to percent activation of maximal native agonist response and analysed by 4-parameter logistic fit to determine EC50 values.
(§7) We used unconstrained 4 parameter logistic fit of data, curve mid-point to determine EC50. This was tested on two occasions, not two batches.
(cAMP levels reflect the balance of adenylyl cyclase and phosphodiesterase activity.)

The target of assay [2] is T2, human GIP receptor (hGIPr) (Homo sapiens, UniProt P48546).
T2 construct: expressed in transfected cells
T2 sequence (P48546 22-466): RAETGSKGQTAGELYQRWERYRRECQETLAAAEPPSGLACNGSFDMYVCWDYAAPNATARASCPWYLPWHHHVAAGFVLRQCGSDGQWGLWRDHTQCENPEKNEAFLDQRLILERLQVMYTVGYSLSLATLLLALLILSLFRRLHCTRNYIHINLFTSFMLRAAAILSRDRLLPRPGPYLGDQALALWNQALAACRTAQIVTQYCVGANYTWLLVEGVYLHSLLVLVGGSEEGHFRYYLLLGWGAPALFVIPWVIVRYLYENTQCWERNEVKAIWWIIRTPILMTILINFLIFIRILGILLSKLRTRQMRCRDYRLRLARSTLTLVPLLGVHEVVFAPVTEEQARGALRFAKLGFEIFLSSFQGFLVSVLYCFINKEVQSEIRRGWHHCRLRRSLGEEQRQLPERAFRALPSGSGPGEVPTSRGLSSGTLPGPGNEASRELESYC
Nature of the assay: BSA-cAMP assay, cells expressing human GIP receptor. Format: cell-based. The settings on record: BSA-cAMP assay; batch 1 unless a batch is given; read-out: cAMP activity hGIPr (EC50). On the procedure:
For human GIPr, two different lines were used, shown as “hGIPr” and “hGIPr (C3)” in Table 11.
as §1, §2, §3, §4, §5, §6, §7

T1 sequence (P43220 24-463): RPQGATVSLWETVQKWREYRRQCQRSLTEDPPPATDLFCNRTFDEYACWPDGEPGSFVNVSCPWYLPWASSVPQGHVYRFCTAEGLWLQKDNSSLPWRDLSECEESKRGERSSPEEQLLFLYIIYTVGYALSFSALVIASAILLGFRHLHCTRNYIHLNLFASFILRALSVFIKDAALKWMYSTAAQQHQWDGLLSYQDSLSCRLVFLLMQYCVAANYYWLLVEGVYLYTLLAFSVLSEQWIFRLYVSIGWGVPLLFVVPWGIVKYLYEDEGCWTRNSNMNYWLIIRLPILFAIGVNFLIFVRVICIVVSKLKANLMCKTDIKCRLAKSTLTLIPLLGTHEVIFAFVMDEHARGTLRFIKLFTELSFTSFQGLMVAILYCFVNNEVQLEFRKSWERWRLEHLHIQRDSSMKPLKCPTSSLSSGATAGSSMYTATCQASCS

B1: IP227 (protein)
chain: YSEGTFTSDVSSYMERQAIDEFVNDLLKGGAAAGGSGSTASSGSGSATGGGGAATHTCPPCPAPEF
modifications: /note=“Description of Artificial Sequence Synthetic Peptide-linker-hinge polypeptide”
B1: the EC50 in assay [1] was found to be 48 nM.

B2: IP224 (protein)
chain: YSEGTFTSDVSSYMERQAIDEFIAWLLGGGAAAGGSGSTASSGSGSATGGGGAATHTCPPCPAPEF
modifications: /note=“Description of Artificial Sequence Synthetic Peptide-linker-hinge polypeptide”
For B2, the EC50 in assay [1] is 0.57 nM; in assay [2], 0.35 nM.

B3: IP176: Fc fusion, IgG1-TM, SEQ ID NO:143; agonist peptide YSEGTFTSDVSSYMERQAISEFIAWLLKGP (protein)
chain: YSEGTFTSDVSSYMERQAISEFIAWLLKGPAAAGGSGSTASSGSGSATGGGGAATHTCPPCPAPEF
modifications: also: Fc fusion, IgG1-TM
notes: agonist peptide YSEGTFTSDVSSYMERQAISEFIAWLLKGP
As to B3, the EC50 came to 0.6 nM in assay [1] and 0.42 nM in assay [2].

B4: IP132 (protein)
chain: HGEGTFTSDVSSYLEGQAAKEFIAWLVKGGGGGGSGGGGSGGGGSGGGGSATHTCPPCPAPEF
modifications: /note=“Description of Artificial Sequence Synthetic Peptide-linker-hinge polypeptide”
Turning to B4, the EC50 in assay [1] came out at 0.04 nM; in assay [2], 81 nM.

B5: IP191 (protein)
chain: HGEGTFTSDVSSYLEGQAAKEFIAWLVKGAAAGGSGSTASSGSGSATGGGGAATYTCPPCPAPEF
modifications: /note=“Description of Artificial Sequence Synthetic Peptide-linker-hinge polypeptide”
B5: the EC50 in assay [1] amounted to 0.057 nM.

B6: IP192 (protein)
chain: HGEGTFTSDVSSYLEGQAAKEFIAWLVKGAAAGGSGSTASSGSGSATGGGGAATSTCPPCPAPEF
modifications: /note=“Description of Artificial Sequence Synthetic Peptide-linker-hinge polypeptide”
As to B6, in assay [1], the EC50 worked out at 0.043 nM.

B7: IP204: isolated polypeptide named in b21; sequence stands in a table not shown here (protein)
chain: HGEGTFISDYSIAMDKIHQQDFVNWLLAQKAAAGGSGSTASSGSGSATGGGGAATHTCPPCPAPEF
modifications: /note=“Description of Artificial Sequence Synthetic Peptide-linker-hinge polypeptide”
On to B7, for which the 50% effective concentration (EC50) in assay [1] worked out at 850 nM; in assay [2], 0.12 nM.

B8: IP194 (protein)
chain: HGEGTFTSDVSSYLEGQAAKEFIAWLVKGAAAGGSGSTASSGSGSATGGGGPPCPPCPAPEF
modifications: /note=“Description of Artificial Sequence Synthetic Peptide-linker-hinge polypeptide”
Turning to B8, in assay [1], the EC50 turned out to be 0.061 nM.

B9: IP197 (protein)
chain: YSEGTFTSDVSSYMERQAIDEFIAWLLAGAAAGGSGSTASSGSGSATGGGGAATHTCPPCPAPEF
modifications: /note=“Description of Artificial Sequence Synthetic Peptide-linker-hinge polypeptide”
With B9, the EC50 in assay [1] turned out to be 0.78 nM; in assay [2] it was 0.18 nM.

B10: IP233 (protein)
chain: HGEGTFTSDVSSYLEEQAAKEFIAWLVKGAAAGGSGSTASSGSGSATGGGGAATHTCPPCPAPEF
modifications: /note=“Description of Artificial Sequence Synthetic Peptide-linker-hinge polypeptide”
On to B10, for which, in assay [1], the EC50 was found to be 0.036 nM.

B11: IP171: Fc fusion, IgG1-TM, SEQ ID NO:142; agonist peptide YSEGTFTSDVSSYMERQAISEFIAWLLAG (protein)
chain: YSEGTFTSDVSSYMERQAISEFIAWLLAGAAAGGSGSTASSGSGSATGGGGAATHTCPPCPAPEF
modifications: also: Fc fusion, IgG1-TM
notes: agonist peptide YSEGTFTSDVSSYMERQAISEFIAWLLAG
As for B11, the EC50 in assay [1] is 0.53 nM; in assay [2] it was 0.39 nM.

B12: IP230 (protein)
chain: HGEGTFTSDVSSYLEGQAAKEFIAWLVKGAAAGGSGSTASSGSGSATGGGGAATHTCPPCPAPEF
modifications: /note=“Description of Artificial Sequence Synthetic Peptide-linker-hinge polypeptide”
Take B12: the EC50 was 0.056 nM in assay [1] and greater than 15000 nM in assay [2].

B13: IP199: isolated polypeptide named in b21; sequence stands in a table not shown here (protein)
chain: HGEGTFTSDVSSYLEGQAAKEFIAWLLAGAAAGGSGSTASSGSGSATGGGGAATHTCPPCPAPEF
modifications: /note=“Description of Artificial Sequence Synthetic Peptide-linker-hinge polypeptide”
As for B13, the EC50 in assay [1] came to 0.069 nM.

B14: IP173: isolated polypeptide named in b21; sequence stands in a table not shown here (protein)
chain: YSEGTFTSDVSSYLEEQAAKEFIAWLLAGAAAGGSGSTASSGSGSATGGGGAATHTCPPCPAPEF
modifications: /note=“Description of Artificial Sequence Synthetic Peptide-linker-hinge polypeptide”
Turning to B14, the concentration for a half-maximal effect (EC50) in assay [1] was 0.23 nM; in assay [2], 1.2 nM.

B15: IP208: isolated polypeptide named in b21; sequence stands in a table not shown here (protein)
chain: YSEGTFTSDVSSYLEGQAAKEFIAWLLAGAAAGGSGSTASSGSGSATGGGGAATHTCPPCPAPEF
modifications: /note=“Description of Artificial Sequence Synthetic Peptide-linker-hinge polypeptide”
For the molecule B15, the EC50 worked out at 1.6 nM in assay [1] and 17 nM in assay [2].

B16: IP150: isolated polypeptide named in b21; sequence stands in a table not shown here (protein)
chain: YSEGTFTSDVSSYLEGQAAKEFIAWLVAGGAPPGGSGSTASSGSGSATGGGGAATHTCPPCPAPEF
modifications: /note=“Description of Artificial Sequence Synthetic Peptide-linker-hinge polypeptide”
As for B16, the results for the EC50 in assay [1] and in assay [2] were 0.033 nM and 16 nM, respectively.

B17: IP174: isolated polypeptide named in b21; sequence stands in a table not shown here (protein)
chain: HGEGTFTSDVSSYLEEEAAKEFIAWLVAGGAAAGGSGSTASSGSGSATGGGGAATHTCPPCPAPEF
modifications: /note=“Description of Artificial Sequence Synthetic Peptide-linker-hinge polypeptide”
On to B17, for which the concentration giving a half-maximal response (EC50) in assay [1] came to 0.032 nM; in assay [2] it was 460 nM.

B18: IP187 (protein)
chain: HGEGTFTSDVSSYLEGQAAKEFIAWLVKGAPPGGGGGSGGGGSGGGGSGGGGSATHTCPPCPAPEF
modifications: /note=“Description of Artificial Sequence Synthetic Peptide-linker-hinge polypeptide”
Consider B18, for which the EC50 was determined as 0.037 nM in assay [1] and 540 nM in assay [2].

B19: IP195 (protein)
chain: HGEGTFTSDVSSYLEGQAAKEFIAWLVKGAAAGGSGSTASSGSGSATGGGGESKYGPPCPPCPAPEF
modifications: /note=“Description of Artificial Sequence Synthetic Peptide-linker-hinge polypeptide”
For B19, in assay [1], the EC50 came out at 0.061 nM.
